T1: biotinylated hIL-33 protein (R&D systems, Cat #3625-IL/CF) (human, UniProt O95760 112-270, biotinylated (sites not given))
T1 construct: Same commercial protein as m21, biotin-labelled; also called biotin-hIL-33
T1 sequence (looked up): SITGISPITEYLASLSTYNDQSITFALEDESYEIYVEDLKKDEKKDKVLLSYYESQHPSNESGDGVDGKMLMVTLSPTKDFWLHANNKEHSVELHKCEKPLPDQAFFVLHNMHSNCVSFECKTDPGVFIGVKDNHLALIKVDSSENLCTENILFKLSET

T2: human IL-33 (R&D Systems, #3625-IL-010/CF) (human, UniProt O95760 112-270)
T2 construct: Commercial recombinant protein; also called hIL-33; interleukin-33
T2 sequence (looked up): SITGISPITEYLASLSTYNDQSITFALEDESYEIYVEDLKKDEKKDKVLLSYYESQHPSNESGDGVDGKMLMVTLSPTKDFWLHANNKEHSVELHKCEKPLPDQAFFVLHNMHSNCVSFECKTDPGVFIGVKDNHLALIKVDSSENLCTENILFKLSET

T3: cynomolgus monkey IL-33 expressed with a C-terminal hexahistidine tag (cynomolgus monkey)
T3 construct: also called MfIL-33-6His; Mf-IL-33-6His
T3 chain: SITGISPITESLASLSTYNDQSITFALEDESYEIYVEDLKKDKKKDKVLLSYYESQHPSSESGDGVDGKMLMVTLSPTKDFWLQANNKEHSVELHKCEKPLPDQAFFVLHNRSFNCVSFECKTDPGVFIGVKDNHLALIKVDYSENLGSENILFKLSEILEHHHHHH

B1: H4H9664P (antibody, human IgG4, V domains shown)
VH: QVQLVESGGGVVQPGRSLRLSCAASGFTFSSYGLHWVRQSPGKGLEWVALISYDGSNKYYADSVKGRFTISRDNSKNTLYLQMNSLRPEDTAGYFCAKSLYTTSWYGGFDYWGQGTLVTVSS
VL: DIQMTQSPSSVSASVGDRVTITCRASQGIRSWLAWYQQKPGKAPNLLIYAASSLQSGVPSRFSGSGSGTDFTLTISSLQPEDFATYYCQQANSFPPTFGPGTKVDIK
notes: Human IgG4 Fc (H4H)
B2: H4H9667P (antibody, human IgG4, V domains shown)
VH: EVQLVESGGGLVQPGGSLRLSCAASGFTFSTYSMHWVRQAPGKGLEYVSTINNNGDTTYYADSVKGRFTISRDNSKNTLYLQLGSLRPEDMAVYYCARQTYTSSWYGGFDSWGQGTLVTVSS
VL: DIQMTQSPSSVSASVGDRVTITCRASQGITSWLAWYQQKPGKAPKLLIYAASNLQSGVPSRFSGSGSGTDFTLTITSLQPEDFATYYCQQANSLPFTFGPGTKVDIK
notes: Human IgG4 Fc (H4H)
B3: H4H9671P (antibody, human IgG4, V domains shown)
VH: EVQLVESGGGLVQPGGSLRLSCAASGFTLRSYFMTWVRQVPGKGLEGVSAISGISGGTYYTDSVKGRFTISRDNSKNTLFLQMNSLRAEDTAVYFCARTVYSSSYYGGFQHWGQGTLVTVSS
VL: DIQMTQSPSSVSVSVGDRVTITCRASQGISSWLAWYQQKPGKAPKLLIYVASSLQSGVPSRFSGSGSGTDFTLTISSLQPEDFATYYCQQTNSFPLTFGGGTKVEIK
notes: Human IgG4 Fc (H4H)
B4: H4H9675P (antibody, human IgG4, V domains shown)
VH: EVQLVESGGNLEQPGGSLRLSCTASGFTFSRSAMNWVRRAPGKGLEWVSGISGSGGRTYYADSVKGRFTISRDNSKNTLYLQMNSLSAEDTAAYYCAKDSYTTSWYGGMDVWGHGTTVTVSS
VL: DIQMTQSPSSVSASVGDRVTITCRASQGIFSWLAWYQQKPGKAPKLLIYAASSLQSGVPSRFSGSGSGTDFTLTISSLQPEDFAIYYCQQANSVPITFGQGTRLEIK
notes: Human IgG4 Fc (H4H)
B5: H4H9665P (antibody, human IgG4, V domains shown)
VH: EVQLVESGGGLVQPGGSLRLSCAASGFTFSNYAMTWVRQAPGKGLEWVSTISGSGDNTYYADSVQGRFTISRGHSKNTLYLQMNSLRAEDTAVYYCAKPTYSRSWYGAFDFWGQGTMVTVSS
VL: DIQMTQSPSSVSASVGDRVTITCRASQGISSWLAWYQQKPGKAPQLLIYAASRLQSGVPSRFWGSGSGTDFTLTISSLQPEDFATYYCQQANNFPFTFGPGTKVDIK
notes: Human IgG4 Fc (H4H)
B6: H4H9670P (antibody, V domains shown)
VH: EVQLVESGGGLVQPGGSLRLSCAASGFTLSSYAMSWVRQAPGKGLEWVSAISGSGGSTYYADSVKGRFTISRDNSKNSLYLQLNSLRAEDTAVYYCAKTLYTTSWYGGFQHWGQGTLVTVSS
VL: DIQMTQSPSSVSASIGDRVTITCRASQGISSWLAWYQQKPGKVPKLLIYAASSLQSGFPSRFSGSGSGTDFTLTISSLQPEDFATYYCQQTHSFPWTVGQGTKVEIK
notes: Human IgG4 Fc (H4H)

How the values were obtained:
[1] = target: T1, biotinylated hIL-33 protein (R&D …); assay: competition ELISA, 30 pM biotin-hIL-33 on coated hST2-hFc
Procedure: (§1) The ability of anti-IL-33 antibodies to block either human IL-33 (hIL-33) or cynomologus monkey IL-33 binding to the human ST2 receptor was measured using a competition sandwich ELISA. […] The antibody/IL-33 mixtures were incubated for 1 hour at room temperature before they were transferred to the hST2-hFc-coated microtiter plates. After incubating for 1 hour at room temperature, the wells were then washed, and plate-bound biotin-hIL-33 was detected with streptavidin conjugated with horse-radish peroxidase (HRP) (Thermo Scientific, Cat # N200), and plate-bound MfIL-33-6His was detected with a HRP conjugated anti-His monoclonal antibody (Qiagen, #34460). All samples were developed with a TMB solution (BD biosciences, #51-2607KC) to produce a colorimetric reaction and then quenched by acidification with 1M sulfuric acid before measuring absorbance at 450 nm on a Victor X5 plate reader. Data analysis was performed using a sigmoidal dose-response model within Prism™ software. […] Percent blockade was calculated as the ratio of the reduction in signal observed in the presence of antibody relative to the difference between the signal with IL-33 alone and background (signal from HRP-conjugated secondary antibody or streptavidin alone). The absorbance measured for the constant concentration of biotin-hIL-33 or MfIL-33-6His alone is defined as 0% blocking and the absorbance measured for no added IL-33 is defined as 100% blocking.

[2] = target: T2, human IL-33 (R&D Systems, …); assay: BLI; hIL-33 pre-mixed with mAb-2 H1M9565N
Procedure: Binding competition between a panel of different anti-IL-33 monoclonal antibodies was determined using a real time, label-free bio-layer interferometry assay on an Octet® HTX biosensor (ForteBio, A Division of Pall Life Sciences). The experiment was performed at 25° C. using a buffer of 0.01M HEPES pH7.4, 0.15M NaCl, 0.05% v/v Surfactant Tween-20, and 0.1 mg/ml BSA (HBS-ET kinetics buffer) with the plate shaking at a speed of 1000 rpm. To assess whether two antibodies were able to compete with one another for binding to human IL-33, a pre-mix assay format was used where 100 nM of human IL-33 (R&D Systems; #3625-IL-010/CF) was pre-mixed with 500 nM of different anti-IL-33 monoclonal antibodies (subsequently referred to as mAb-2) for at least 2 hours prior to running the binding competition assay. […] Following the capture step, unoccupied anti-mouse Fc polyclonal antibody and anti-human Fc polyclonal antibody on the Octet biosensors were saturated by submerging them for 4 minutes into wells containing 200 μg/mL of a non-specific monoclonal antibody with a mouse Fc or with a human Fc, respectively. Finally, the Octet biosensors were immersed for 4 minutes into wells containing the pre-mixed samples of 100 nM of human IL-33 and 500 nM of mAb-2. At the end of each cycle, the non-covalently captured anti-IL-33 antibodies along with the bound pre-complex of human IL-33 and mAb-2 were removed from the biosensors using three alternate 20 second immersions into 10 mM HCl followed by submerging into HBS-ET kinetics buffer. The biosensors were washed in HBS-ET kinetics buffer in between every step of the experiment. The real-time binding response was monitored during the binding events, and the binding response (in units of nm) at the end of every step was recorded.

[3] = target: T3, cynomolgus monkey IL-33 expressed with …; assay: SPR 37C, pH6.0 chase, mAb captured
Procedure: (§2) Equilibrium dissociation constants (KD values) for IL-33 binding to purified anti-IL-33 monoclonal antibodies were determined using a real-time surface plasmon resonance biosensor using a Biacore 4000 instrument. The Biacore sensor surface was first derivatized by amine coupling with either a polyclonal rabbit anti-mouse antibody (GE, # BR-1008-38) or with a monoclonal mouse anti-human Fc antibody (GE, # BR-1008-39) to capture anti-IL-33 monoclonal antibodies expressed with mouse or with human IgG4 constant regions, respectively. All Biacore binding studies were performed in 0.01M ADA pH 7.4, 0.15M NaCl, 3 mM EDTA, and 0.05% v/v Surfactant Tween-20 (ABS-ET running buffer). […] Association of either hIL-33 or MfIL-33-6His to the captured monoclonal antibody was monitored for 4 minutes and their dissociation in ABS-ET running buffer was monitored for 10 minutes. The effect of reduced pH on the binding of each anti-IL-33 antibody to either hIL-33 or MfIL-33-6His was studied using an in-line pH chase assay format in 0.01M ADA pH 6.0, 0.15M NaCl, 3 mM EDTA, and 0.05% v/v Surfactant Tween-20 (ABS-ET pH6 buffer). To achieve this, association of either hIL-33 or MfIL-33-6His to the captured monoclonal antibody was monitored for 4 minutes in ABS-ET running buffer. Following a 30 second dissociation of either hIL-33 or MfIL-33-6His in ABS-ET running buffer, ABS-ET pH6 buffer was injected for 3 minutes, and the analyte dissociation under the low-pH conditions was measured. All the binding kinetic experiments were performed at both 25° C. and 37° C. Kinetic association (kₐ) and dissociation (kd) constants were determined by fitting the real-time sensorgrams to a 1:1 binding model using Scrubber 2.0c curve fitting software. Binding dissociation equilibrium constants (KD) and dissociative half-lives (t½) were calculated from the kinetic rate constants as: […]

[4] = target: T2, human IL-33 (R&D Systems, …); assay: SPR 37C, pH6.0 chase, mAb captured
Procedure: as §2

[5] = target: T3, cynomolgus monkey IL-33 expressed with …; assay: competition ELISA, 150 pM MfIL-33-6His on coated hST2-hFc
Procedure: as §1

| Binder | % Maximum blocking [1] [%] | IC50 [1] [nM] | mAb-1 Binding to the Pre-complex of mAb-2 & hIL-33 [2] [nm] | koff [3] [s⁻¹] | t½ [3] [min] | t½ Ratio (pH 7.4/pH 6.0) [3] | koff [4] [s⁻¹] | t½ [4] [min] | t½ Ratio (pH 7.4/pH 6.0) [4] | % Maximum blocking [5] [%] | IC50 [5] [nM] |
| --- | --- | --- | --- | --- | --- | --- | --- | --- | --- | --- | --- |
| B1 | 73 | 0.3 | 0.48 | 0.00193 | 6 | 0.3 | 0.00279 | 4 | 3.9 | 67 | 3.8 |
| B2 | 78 | 0.41 | 0.48 | 0.00268 | 4 | 0.8 | 0.00244 | 5 | 4 | 72 | 4.1 |
| B3 | 46 | 0.46 | 0.57 | 0.00819 | 1.4 | 1.3 | 0.00585 | 2 | 5.1 | 62 | 0.58 |
| B4 | 58 | 0.44 | 0.51 | 0.00735 | 1.6 | 1.5 | 0.00463 | 2 | 5.3 | 72 | 1.5 |
| B5 | 55 | 0.87 | 0.66 | 0.004 | 2.9 | 1.9 | 0.00965 | 1 | 6.7 | 81 | 0.42 |
| B6 | 69 | 0.48 | 0.51 | 0.00165 | 7 | 0.3 | 0.00383 | 3 | 4.9 | 69 | 3.5 |

— patent US20160362487A1 (Regeneron, published 2016)
